In patent US20250368714A1, “TREATMENT OF CANCER” (Immutep S.A.S., priority 2022, published 2025):

Legend:
[1] = Pharmacokinetics of s.c. IMP321 in metastatic renal cell cancer patients; format: in vivo, human; settings: for at least 24 hours after s.c. injection; doses of more than 6 mg
[2] = Clinical safety and tolerability of IMP321 (efti)
[3] = system: CD4+ and CD8+ T cells numbers and activation status, IFN-γ and CXCL10; test: PD markers of T cell immune response in patients dosed with efti every 2 weeks; format: in vivo, human
[4] = Nonclinical toxicity study; format: in vivo
[5] = system: primary and secondary immune cells; test: PD effects in vitro and ex vivo: activation of immune cells, induction of cytokines; format: cell-based
[6] = Clinical pharmacokinetics of s.c. efti in cancer patients; format: in vivo, human; settings: for Cavg24h: cancer patients
Procedure: (§1) On the other hand, pre-study levels of CD8+ T cells were not correlated with OS in either treatment arm. Efti increases secondary target cells (CD8+ T cells) in the peripheral blood, leading to improved OS.
Efti doses of 6 and 30 mg given clinically lead to plasma Cmax of ≥1 ng/ml in most patients, this concentration reflecting the minimum concentration for desired efti PD effects. However, systemic efti levels of >1 ng/ml and lasting for ≥24 h have been observed in about 90% of patients receiving efti 30 mg, compared to only 20% at 6 mg.

[7] = system: Blood cell subsets (CD4, CD8, PBMCs, monocytes) and Th1 biomarker (CXCL-10); test: AIPAC immuno-monitoring of blood cell subsets, Th1 biomarker and absolute lymphocyte count; format: in vivo, human
Procedure: Immuno-monitoring was also conducted. Blood cell subsets (CD4, CD8, PBMCs, monocytes) and Th1 biomarker (CXCL-10) were measured centrally. Comparison was done using 2-sided Wilcoxon test.
as §1
Increase of ALC is linked to improved survival for patients treated with efti arm, but not for patients in the placebo arm (FIG. 9). […] As this increase is observed early, it could be used in the future as a potential early on study biomarker for treatment continuation.

[8] = human, in vivo
[9] = system: HER2 negative hormone receptor-positive metastatic breast cancer patients; test: AIPAC Phase IIb study: paclitaxel+IMP321 vs paclitaxel+placebo, overall survival; format: in vivo, human
Procedure: A multicentre, placebo-controlled, double-blind, 1:1 randomised Phase IIb study in female HER2 negative hormone receptor-positive metastatic breast cancer patients was conducted. The study comprised two stages: • stage 1 which was an open-label, safety run-in stage consisting of cohorts 1 and 2 to confirm the recommended Phase II dose (RPTD) of IMP321 in combination with paclitaxel; and • stage 2 which was a placebo-controlled, double-blind randomisation stage, paclitaxel+IMP321 at the RPTD compared to paclitaxel+placebo.
The chemo-immunotherapy phase consisted of 6 cycles of 4 weeks. Patients received weekly paclitaxel at Days 1, 8 and 15 with adjunctive treatment of study agent (IMP321) on Days 2 and 16 of each 4-week cycle. After completion of the 6-cycle chemo-immunotherapy phase, responding or stable patients received study agent (IMP321) every 4 weeks during the maintenance phase for an additional period of up to 12 injections.
The chemo-immunotherapy phase consisted of 6 cycles of 4 weeks. Patients received weekly paclitaxel at Days 1, 8 and 15 with adjunctive treatment of study agent (placebo) on Days 2 and 16 of each 4-week cycle.
After completion of the 6-cycle chemo-immunotherapy phase, responding or stable patients received study agent (placebo) every 4 weeks during the maintenance phase for an additional period of up to 12 injections.
In addition, multivariate analysis was done using backward selection (p>0.15) from the univariate cox model.

[10] = 8 treatment emergent adverse events in 3 of 5 patients with Cmax >10 ng/ml
[11] = Overall population, paclitaxel+IMP321 30 mg vs paclitaxel+placebo, univariate analysis, p 0.197
[12] = Sub-group <5 years since diagnosis, multivariate analysis table, p 0.025
[13] = Sub-group <65 years, univariate analysis, p 0.017
[14] = Sub-group Luminal B, univariate analysis, p 0.049
[15] = Sub-group high (>3.65) NLR at baseline, multivariate analysis table, p 0.012
[16] = Sub-group low baseline monocytes (<0.25/nL), univariate analysis, p 0.008
[17] = Sub-group low baseline monocytes, multivariate analysis table, p 0.008
[18] = Sub-group no prior taxane therapy, multivariate analysis table, p 0.076
[19] = Sub-group no prior taxane therapy, univariate analysis, p 0.076

B1: IMP321: recombinant soluble human LAG-3Ig fusion protein, 160-kDa dimer: extracellular domain of hLAG-3 fused to human IgG1 Fc; APC activator (protein)
chain: LQPGAEVPVVWAQEGAPAQLPCSPTIPLQDLSLLRRAGVTWQHQPDSGPPAAAPGHPLAPGPHPAAPSSWGPRPRRYTVLSVGPGGLRSGRLPLQPRVQLDERGRQRGDFSLWLRPARRADAGEYRAAVHLRDRALSCRLRLRLGQASMTASPPGSLRASDWVILNCSFSRPDRPASVHWFRNRGQGRVPVRESPHHHLAESFLFLPQVSPMDSGPWGCILTYRDGFNVSIMYNLTVLGLEPPTPLTVYAGAGSRVGLPCRLPAGVGTRSFLTAKWTPPGGGPDLLVTGDNGDFTLRLEDVSQAQAGTYTCHIHLQEQQLNATVTLAIITVTPKSFGSPGSLGKLLCEVTPVSGQERFVWSSLDTPSQRSFSGPWLEAQEAQLLSQPWQCQLYQGERLLGAAVYFTELSSPG
modifications: left off: small tags and cut ends; a dimerising Fc or GST
In the case of B1, the “blood concentration of IMP321” value [1] is reported as greater than 1 ng/mL, the “grade ≥3 adverse events related to efti” value ([2]; 5 patients with Cmax of >10 ng/ml at dose 1) is reported as “no grade ≥3 adverse events related to efti” and the “adverse reactions mild in severity” value [2, 10] is reported as 62.5%. The “adverse reactions moderate in severity” value [2, 10] was 37.5%, the dose limiting toxicity ([2]; observed to date) was “No dose limiting toxicity” and the “proportion of patients with upregulation of at least one PD marker (1.4-fold increase compared to baseline)” value ([3]; 1 mg) was “about 50%”. For the same molecule, the “proportion of patients with upregulation of at least one PD marker (1.4-fold increase compared to baseline)” value ([3]; 30 mg) was “about 90%”, the NOAEL dose [4] was 15 mg/kg and the “efti concentration at which desired PD effects start” value [5] was 1 to 10 ng/mL. The “patients with systemic efti levels of >1 ng/ml lasting for ≥24 h” value ([6]; 6 mg) was 20%, the Cavg24h ([6]; 6 mg) was 0.8 ng/mL and the “patients with systemic efti levels of >1 ng/ml lasting for ≥24 h” value ([6]; 30 mg) was “about 90%”. For the same molecule, the Cavg24h ([6]; 30 mg s.c.) was 3.3 ng/mL, the “plasma Cmax” value ([6]; doses of 6 and 30 mg, in most patients) was no less than 1 ng/mL and the “time until efti disappears from the bloodstream after injection” value ([6]; s.c. injection) was 3 to 4 days. The “On treatment fold-change of PBMCs” value ([7]; IMP321 group vs placebo 1.41, p=0.041) was 2.00 fold, the “On treatment fold-change of T cells” value ([7]; IMP321 group vs placebo 1.48, p=0.086) was 2.28 fold and the “On treatment fold-change of CXCL10” value ([7]; IMP321 group vs placebo 1.56, p=0.06) was 2.78 fold. For the same molecule, the “On treatment fold-change of monocytes” value ([7]; IMP321 group vs placebo 2.29, p=0.025) was 5.81 fold, the “absolute lymphocyte count increase” value ([7]; efti arm, early (after 4 weeks) and sustainable) was no less than 0.2 nL⁻¹ and the “circulating CD8+ T cells” value ([7]; efti arm, fresh whole blood by FACS (n=75), samples 2 weeks after previous efti dose, not in placebo arm) was “sustainable, statistically significant increase”. For the same molecule, the “Post baseline CD8 T cells count (median)” value ([7]; patients with improved OS, IMP321 group vs placebo 223, p=0.005) was 377 µL⁻¹, the “Post baseline CD4 T cells count (median)” value ([7]; patients with improved OS, IMP321 group vs placebo 736, p=0.038) was 896 µL⁻¹ and the “safety and tolerability of dose” value [8] was “safe and tolerable”. For the same molecule, the “safety of s.c. doses” value ([8]; sc) was “safe”, the “Absolute gain in median OS” value [9, 11] was “+2.9 months” and the “Hazard Ratio [95% CI] (OS)” value [9, 11] was 0.88. The “Absolute gain in median OS” value [9, 12] was “+4.8 months”, the “Hazard Ratio [95% CI] (OS)” value [9, 12] was 0.62 and the “Absolute gain in median OS” value [9, 13] was “+7.5 months”. For the same molecule, the “Hazard Ratio [95% CI] (OS)” value [9, 13] was 0.66, the “Absolute gain in median OS” value [9, 14] was “+4.2 months” and the “Hazard Ratio [95% CI] (OS)” value [9, 14] was 0.67. The “Absolute gain in median OS” value [9, 15] was “+6.9 months”, the “Hazard Ratio [95% CI] (OS)” value [9, 15] was 0.61 and the “Absolute gain in median OS” value [9, 16] was “+19.6 months”. The “Hazard Ratio [95% CI] (OS)” value [9, 16] was 0.44, the “Absolute gain in median OS” value [9, 17] was “+19.6 months” and the “Hazard Ratio [95% CI] (OS)” value [9, 17] was 0.44. The “Absolute gain in median OS” value [9, 18] was “+4.8 months”, the “Hazard Ratio [95% CI] (OS)” value [9, 18] was 0.74 and the “Absolute gain in median OS” value [9, 19] was “+4.8 months”. For the same molecule, the “Hazard Ratio [95% CI] (OS)” value [9, 19] was 0.74 and the “improvement in median overall survival (OS)” value ([9]; young patients (<65 years), low baseline monocytes (<0.25/nL), or Luminal B, exploratory univariate analysis) was “significant and clinically meaningful improvement”.
